Assay results: patent US20170355766A1 (Xencor, published 2017)
Substitutions are numbered along the chain they refer to. Numbers in names are those of the source.

T1: human FcγRIIb receptor protein (R&D Systems) (human, UniProt P31994 46-217)
T1 construct: Analyte injected over antibodies captured on a protein A/G chip (Biacore); also called CD32b
T1 sequence (looked up): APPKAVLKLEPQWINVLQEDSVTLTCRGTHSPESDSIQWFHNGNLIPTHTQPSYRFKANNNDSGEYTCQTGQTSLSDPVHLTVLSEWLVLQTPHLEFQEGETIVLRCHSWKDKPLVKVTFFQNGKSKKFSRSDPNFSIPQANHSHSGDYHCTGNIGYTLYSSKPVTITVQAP

B1: H268D/A327D (antibody, human IgG1, kappa)
heavy: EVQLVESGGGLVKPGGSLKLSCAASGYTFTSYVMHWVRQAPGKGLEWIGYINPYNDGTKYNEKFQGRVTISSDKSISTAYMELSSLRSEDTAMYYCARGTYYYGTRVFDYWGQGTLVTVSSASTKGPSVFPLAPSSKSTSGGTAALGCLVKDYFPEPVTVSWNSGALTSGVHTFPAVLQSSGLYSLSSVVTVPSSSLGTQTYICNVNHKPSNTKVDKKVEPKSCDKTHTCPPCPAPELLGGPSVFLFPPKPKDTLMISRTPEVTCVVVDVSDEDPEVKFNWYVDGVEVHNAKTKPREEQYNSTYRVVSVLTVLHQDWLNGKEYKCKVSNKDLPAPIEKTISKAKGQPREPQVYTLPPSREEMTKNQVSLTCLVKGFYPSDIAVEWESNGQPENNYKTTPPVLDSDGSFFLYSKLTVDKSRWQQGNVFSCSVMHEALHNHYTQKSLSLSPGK
light: DIVMTQSPATLSLSPGERATLSCRSSKSLQNVNGNTYLYWFQQKPGQSPQLLIYRMSNLNSGVPDRFSGSGSGTEFTLTISSLEPEDFAVYYCMQHLEYPITFGAGTKLEIKRTVAAPSVFIFPPSDEQLKSGTASVVCLLNNFYPREAKVQWKVDNALQSGNSQESVTEQDSKDSTYSLSSTLTLSKADYEKHKVYACEVTHQGLSSPVTKSFNRGEC
notes: HuAM4G7 IgG1 Fc variant
B2: L328E (antibody, human IgG1, kappa)
heavy: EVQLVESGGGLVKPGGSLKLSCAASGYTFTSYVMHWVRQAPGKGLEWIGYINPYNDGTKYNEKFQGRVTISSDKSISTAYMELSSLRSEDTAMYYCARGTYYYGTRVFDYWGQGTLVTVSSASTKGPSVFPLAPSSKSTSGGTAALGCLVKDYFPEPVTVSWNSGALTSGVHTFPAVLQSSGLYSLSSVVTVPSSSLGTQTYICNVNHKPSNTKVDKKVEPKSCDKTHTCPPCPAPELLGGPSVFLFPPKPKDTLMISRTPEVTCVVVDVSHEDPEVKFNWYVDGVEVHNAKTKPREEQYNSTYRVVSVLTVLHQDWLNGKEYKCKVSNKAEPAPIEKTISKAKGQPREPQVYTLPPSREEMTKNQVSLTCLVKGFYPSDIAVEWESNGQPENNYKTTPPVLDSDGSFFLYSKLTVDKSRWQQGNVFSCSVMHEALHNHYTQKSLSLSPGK
light: B1 light
notes: HuAM4G7 IgG1 Fc variant
B3: L235W (antibody, human IgG1, kappa)
heavy: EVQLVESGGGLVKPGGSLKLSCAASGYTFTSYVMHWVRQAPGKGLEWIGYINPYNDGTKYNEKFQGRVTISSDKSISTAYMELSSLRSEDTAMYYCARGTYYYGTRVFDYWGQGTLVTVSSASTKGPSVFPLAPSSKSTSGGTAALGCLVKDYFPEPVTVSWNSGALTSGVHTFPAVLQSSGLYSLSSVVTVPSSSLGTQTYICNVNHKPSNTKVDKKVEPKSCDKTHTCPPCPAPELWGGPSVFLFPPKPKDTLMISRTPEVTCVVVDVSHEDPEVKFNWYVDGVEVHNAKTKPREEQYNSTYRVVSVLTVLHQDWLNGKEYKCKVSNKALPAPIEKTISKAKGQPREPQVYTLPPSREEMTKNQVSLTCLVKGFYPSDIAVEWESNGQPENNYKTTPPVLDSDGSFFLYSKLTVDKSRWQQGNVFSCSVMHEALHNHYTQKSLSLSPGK
light: B1 light
notes: HuAM4G7 IgG1 Fc variant
B4: L234W/S239D/L328Y (antibody, human IgG1, kappa)
heavy: EVQLVESGGGLVKPGGSLKLSCAASGYTFTSYVMHWVRQAPGKGLEWIGYINPYNDGTKYNEKFQGRVTISSDKSISTAYMELSSLRSEDTAMYYCARGTYYYGTRVFDYWGQGTLVTVSSASTKGPSVFPLAPSSKSTSGGTAALGCLVKDYFPEPVTVSWNSGALTSGVHTFPAVLQSSGLYSLSSVVTVPSSSLGTQTYICNVNHKPSNTKVDKKVEPKSCDKTHTCPPCPAPEWLGGPDVFLFPPKPKDTLMISRTPEVTCVVVDVSHEDPEVKFNWYVDGVEVHNAKTKPREEQYNSTYRVVSVLTVLHQDWLNGKEYKCKVSNKAYPAPIEKTISKAKGQPREPQVYTLPPSREEMTKNQVSLTCLVKGFYPSDIAVEWESNGQPENNYKTTPPVLDSDGSFFLYSKLTVDKSRWQQGNVFSCSVMHEALHNHYTQKSLSLSPGK
light: B1 light
notes: HuAM4G7 IgG1 Fc variant
B5: L328Y/I332E (antibody, human IgG1, kappa)
heavy: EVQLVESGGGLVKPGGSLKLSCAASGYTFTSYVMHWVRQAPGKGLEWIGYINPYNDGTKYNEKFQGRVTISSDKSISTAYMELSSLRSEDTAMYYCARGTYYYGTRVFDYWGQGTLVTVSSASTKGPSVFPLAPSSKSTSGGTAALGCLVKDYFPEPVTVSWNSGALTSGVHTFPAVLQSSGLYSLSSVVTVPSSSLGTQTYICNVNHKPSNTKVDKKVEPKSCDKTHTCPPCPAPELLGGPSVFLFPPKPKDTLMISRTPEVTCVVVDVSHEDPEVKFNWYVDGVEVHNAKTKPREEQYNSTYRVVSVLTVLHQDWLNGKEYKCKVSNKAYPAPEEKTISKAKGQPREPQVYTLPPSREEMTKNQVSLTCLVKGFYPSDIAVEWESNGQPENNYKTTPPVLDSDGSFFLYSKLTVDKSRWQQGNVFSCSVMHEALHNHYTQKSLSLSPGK
light: B1 light
notes: HuAM4G7 IgG1 Fc variant
B6: L234W/H268D/L328Y (antibody, human IgG1, kappa)
heavy: B4 heavy with D243S, H272D
light: B1 light
notes: HuAM4G7 IgG1 Fc variant
B7: K326A (antibody, human IgG1, kappa)
heavy: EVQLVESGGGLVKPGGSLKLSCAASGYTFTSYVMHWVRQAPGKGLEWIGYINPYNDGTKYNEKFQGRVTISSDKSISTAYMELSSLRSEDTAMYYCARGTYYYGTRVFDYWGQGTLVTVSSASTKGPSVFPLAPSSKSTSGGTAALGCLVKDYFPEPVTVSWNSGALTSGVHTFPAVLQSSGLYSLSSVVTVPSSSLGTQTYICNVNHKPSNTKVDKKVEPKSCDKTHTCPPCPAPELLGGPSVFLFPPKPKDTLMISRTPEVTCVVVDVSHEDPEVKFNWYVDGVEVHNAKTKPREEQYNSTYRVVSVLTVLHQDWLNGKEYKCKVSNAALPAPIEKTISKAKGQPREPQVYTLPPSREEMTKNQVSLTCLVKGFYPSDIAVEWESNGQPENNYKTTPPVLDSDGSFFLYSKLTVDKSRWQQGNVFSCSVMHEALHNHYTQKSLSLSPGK
light: B1 light
notes: HuAM4G7 IgG1 Fc variant
B8: L234W/L328Y/I332E (antibody, human IgG1, kappa)
heavy: B4 heavy with D243S, I336E
light: B1 light
notes: HuAM4G7 IgG1 Fc variant
B9: L235D/S239D (antibody, human IgG1, kappa)
heavy: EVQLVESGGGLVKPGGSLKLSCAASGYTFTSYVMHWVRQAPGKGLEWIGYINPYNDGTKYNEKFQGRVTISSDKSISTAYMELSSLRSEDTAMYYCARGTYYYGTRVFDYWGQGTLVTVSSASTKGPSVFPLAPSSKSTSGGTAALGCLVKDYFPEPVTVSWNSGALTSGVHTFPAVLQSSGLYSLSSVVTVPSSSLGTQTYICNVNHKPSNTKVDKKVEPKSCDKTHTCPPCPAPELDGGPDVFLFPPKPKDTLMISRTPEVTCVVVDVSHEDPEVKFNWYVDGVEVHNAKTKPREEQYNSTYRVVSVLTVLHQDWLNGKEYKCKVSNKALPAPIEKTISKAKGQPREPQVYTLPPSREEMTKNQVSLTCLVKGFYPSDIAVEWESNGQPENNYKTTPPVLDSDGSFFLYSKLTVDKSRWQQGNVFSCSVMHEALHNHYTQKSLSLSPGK
light: B1 light
notes: HuAM4G7 IgG1 Fc variant
B10: K326E (antibody, human IgG1, kappa)
heavy: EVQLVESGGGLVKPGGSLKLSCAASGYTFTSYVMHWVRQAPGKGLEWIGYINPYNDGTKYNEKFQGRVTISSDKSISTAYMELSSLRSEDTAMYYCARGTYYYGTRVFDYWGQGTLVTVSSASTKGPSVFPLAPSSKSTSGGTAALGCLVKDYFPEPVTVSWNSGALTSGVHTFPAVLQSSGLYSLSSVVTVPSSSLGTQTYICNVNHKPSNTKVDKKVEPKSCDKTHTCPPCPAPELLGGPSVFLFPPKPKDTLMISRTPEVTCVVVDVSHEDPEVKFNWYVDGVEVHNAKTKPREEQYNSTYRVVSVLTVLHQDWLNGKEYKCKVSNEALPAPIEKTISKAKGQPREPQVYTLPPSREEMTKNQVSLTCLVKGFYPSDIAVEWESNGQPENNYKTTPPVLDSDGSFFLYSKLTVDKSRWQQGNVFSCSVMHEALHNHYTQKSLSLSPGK
light: B1 light
notes: HuAM4G7 IgG1 Fc variant
B11: L234F/G236N (antibody, human IgG1, kappa)
heavy: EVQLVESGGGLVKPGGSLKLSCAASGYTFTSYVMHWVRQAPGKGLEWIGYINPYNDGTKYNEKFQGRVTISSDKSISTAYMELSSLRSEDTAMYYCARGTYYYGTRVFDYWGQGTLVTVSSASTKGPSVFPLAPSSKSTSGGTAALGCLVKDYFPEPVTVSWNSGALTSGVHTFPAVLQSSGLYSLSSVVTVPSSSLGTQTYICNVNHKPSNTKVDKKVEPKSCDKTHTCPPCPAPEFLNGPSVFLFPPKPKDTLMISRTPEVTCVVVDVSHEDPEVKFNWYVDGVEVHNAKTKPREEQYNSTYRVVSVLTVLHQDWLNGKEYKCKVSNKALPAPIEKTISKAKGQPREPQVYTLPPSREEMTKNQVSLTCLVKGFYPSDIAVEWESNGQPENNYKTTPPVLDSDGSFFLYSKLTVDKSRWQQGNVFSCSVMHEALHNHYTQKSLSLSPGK
light: B1 light
notes: HuAM4G7 IgG1 Fc variant
B12: H268D/L328Y (antibody, human IgG1, kappa)
heavy: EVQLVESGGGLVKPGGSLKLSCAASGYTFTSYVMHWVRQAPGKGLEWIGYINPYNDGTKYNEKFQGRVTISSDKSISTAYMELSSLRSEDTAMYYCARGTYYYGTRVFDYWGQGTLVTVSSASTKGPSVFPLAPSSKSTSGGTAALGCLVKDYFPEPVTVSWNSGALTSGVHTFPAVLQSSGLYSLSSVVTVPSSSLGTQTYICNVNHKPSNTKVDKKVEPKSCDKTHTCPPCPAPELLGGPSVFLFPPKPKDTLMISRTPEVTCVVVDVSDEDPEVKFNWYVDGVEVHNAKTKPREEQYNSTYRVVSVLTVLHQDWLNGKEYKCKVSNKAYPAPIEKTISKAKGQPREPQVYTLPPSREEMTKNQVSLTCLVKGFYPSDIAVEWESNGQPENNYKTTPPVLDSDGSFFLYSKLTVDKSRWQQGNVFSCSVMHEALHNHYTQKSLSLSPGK
light: B1 light
notes: HuAM4G7 IgG1 Fc variant
B13: L234E/H268D (antibody, human IgG1, kappa)
heavy: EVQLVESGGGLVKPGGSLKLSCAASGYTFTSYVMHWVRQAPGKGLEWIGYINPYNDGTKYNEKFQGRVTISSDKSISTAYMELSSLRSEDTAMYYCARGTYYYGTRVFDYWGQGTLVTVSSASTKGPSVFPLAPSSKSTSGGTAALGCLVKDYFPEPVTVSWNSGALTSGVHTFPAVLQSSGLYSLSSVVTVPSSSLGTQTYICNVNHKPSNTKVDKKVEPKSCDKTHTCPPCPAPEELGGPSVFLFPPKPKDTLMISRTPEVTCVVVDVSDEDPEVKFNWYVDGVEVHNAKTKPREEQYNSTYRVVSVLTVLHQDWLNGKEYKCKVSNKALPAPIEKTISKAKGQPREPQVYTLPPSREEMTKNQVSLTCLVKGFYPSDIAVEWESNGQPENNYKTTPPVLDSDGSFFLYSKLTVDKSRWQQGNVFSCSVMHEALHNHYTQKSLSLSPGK
light: B1 light
notes: HuAM4G7 IgG1 Fc variant
B14: P331S (antibody, human IgG1, kappa)
heavy: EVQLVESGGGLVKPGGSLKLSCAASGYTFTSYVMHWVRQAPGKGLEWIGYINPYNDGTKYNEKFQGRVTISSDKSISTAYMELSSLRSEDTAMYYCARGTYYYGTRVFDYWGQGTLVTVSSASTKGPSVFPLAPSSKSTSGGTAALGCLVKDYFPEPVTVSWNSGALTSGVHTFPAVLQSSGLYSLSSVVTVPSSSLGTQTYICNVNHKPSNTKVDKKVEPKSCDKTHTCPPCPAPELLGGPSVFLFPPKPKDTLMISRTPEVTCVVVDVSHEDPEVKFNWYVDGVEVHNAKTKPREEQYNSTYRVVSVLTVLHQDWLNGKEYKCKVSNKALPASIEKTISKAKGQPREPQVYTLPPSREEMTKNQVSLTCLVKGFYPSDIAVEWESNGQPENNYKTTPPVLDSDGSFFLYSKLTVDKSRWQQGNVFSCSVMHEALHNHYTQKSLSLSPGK
light: B1 light
notes: HuAM4G7 IgG1 Fc variant
B15: K326D/L328Y/I332E (antibody, human IgG1, kappa)
heavy: B4 heavy with W238L, D243S, K330D, I336E
light: B1 light
notes: HuAM4G7 IgG1 Fc variant
B16: H268D/L328W/I332E (antibody, human IgG1, kappa)
heavy: B4 heavy with W238L, D243S, H272D, Y332W, I336E
light: B1 light
notes: HuAM4G7 IgG1 Fc variant
B17: L235F/L328Y/I332E (antibody, human IgG1, kappa)
heavy: B4 heavy with W238L, L239F, D243S, I336E
light: B1 light
notes: HuAM4G7 IgG1 Fc variant
B18: L235F/H268D/L328Y (antibody, human IgG1, kappa)
heavy: B4 heavy with W238L, L239F, D243S, H272D
light: B1 light
notes: HuAM4G7 IgG1 Fc variant
B19: L235Y/S267D (antibody, human IgG1, kappa)
heavy: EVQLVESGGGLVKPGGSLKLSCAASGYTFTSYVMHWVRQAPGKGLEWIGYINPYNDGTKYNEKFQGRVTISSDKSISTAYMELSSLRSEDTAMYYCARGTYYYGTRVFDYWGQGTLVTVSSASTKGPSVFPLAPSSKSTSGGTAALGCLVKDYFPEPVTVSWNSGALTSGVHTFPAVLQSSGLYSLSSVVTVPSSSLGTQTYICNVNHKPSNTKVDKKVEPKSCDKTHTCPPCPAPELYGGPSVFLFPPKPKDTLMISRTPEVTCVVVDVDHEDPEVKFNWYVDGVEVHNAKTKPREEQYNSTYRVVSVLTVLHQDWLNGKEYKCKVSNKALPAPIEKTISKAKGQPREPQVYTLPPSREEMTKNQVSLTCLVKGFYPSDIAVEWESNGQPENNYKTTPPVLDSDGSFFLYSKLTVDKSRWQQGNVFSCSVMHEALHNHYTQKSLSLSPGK
light: B1 light
notes: HuAM4G7 IgG1 Fc variant
B20: H268D/L328F/I332E (antibody, human IgG1, kappa)
heavy: B4 heavy with W238L, D243S, H272D, Y332F, I336E
light: B1 light
notes: HuAM4G7 IgG1 Fc variant
B21: H268E/L328Y/I332E (antibody, human IgG1, kappa)
heavy: B4 heavy with W238L, D243S, H272E, I336E
light: B1 light
notes: HuAM4G7 IgG1 Fc variant
B22: H268D/L328Y/I332E (antibody, human IgG1, kappa)
heavy: B4 heavy with W238L, D243S, H272D, I336E
light: B1 light
notes: HuAM4G7 IgG1 Fc variant
B23: H268D/K326D/L328Y (antibody, human IgG1, kappa)
heavy: B4 heavy with W238L, D243S, H272D, K330D
light: B1 light
notes: HuAM4G7 IgG1 Fc variant
B24: H268D/A327D/L328Y (antibody, human IgG1, kappa)
heavy: B4 heavy with W238L, D243S, H272D, A331D
light: B1 light
notes: HuAM4G7 IgG1 Fc variant
B25: K326W (antibody, human IgG1, kappa)
heavy: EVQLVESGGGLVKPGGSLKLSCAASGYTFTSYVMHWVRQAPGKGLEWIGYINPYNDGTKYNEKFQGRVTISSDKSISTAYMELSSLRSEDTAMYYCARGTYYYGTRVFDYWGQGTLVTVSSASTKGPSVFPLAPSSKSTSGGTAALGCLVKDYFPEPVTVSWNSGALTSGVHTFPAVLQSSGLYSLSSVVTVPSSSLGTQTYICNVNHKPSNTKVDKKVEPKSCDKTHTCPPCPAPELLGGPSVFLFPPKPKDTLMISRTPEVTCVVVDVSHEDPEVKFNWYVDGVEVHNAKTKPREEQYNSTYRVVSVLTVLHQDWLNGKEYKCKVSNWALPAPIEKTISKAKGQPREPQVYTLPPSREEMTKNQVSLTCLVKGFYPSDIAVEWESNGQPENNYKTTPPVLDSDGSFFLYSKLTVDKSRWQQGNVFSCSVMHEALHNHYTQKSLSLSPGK
light: B1 light
notes: HuAM4G7 IgG1 Fc variant
B26: L235F/S239D/L328Y (antibody, human IgG1, kappa)
heavy: B4 heavy with W238L, L239F
light: B1 light
notes: HuAM4G7 IgG1 Fc variant
B27: S239D/A327D/L328Y (antibody, human IgG1, kappa)
heavy: B4 heavy with W238L, A331D
light: B1 light
notes: HuAM4G7 IgG1 Fc variant

Molecular target: T1, human FcγRIIb receptor protein (R&D …)
Experiment: SPR (Biacore)
Description: Variants were screened for receptor affinity using Biacore™ technology, also referred to as Biacore herein, a surface plasmon resonance (SPR) based technology for studying biomolecular interactions in real time. SPR measurements were performed using a Biacore 3000 instrument (Biacore, Piscataway, N.J.). A protein A/G (Pierce Biotechnology) CM5 biosensor chip (Biacore) was generated using a standard primary amine coupling protocol. All measurements were performed using HBS-EP buffer (10 mM HEPES pH 7.4, 0.15 M NaCl, 3 mM EDTA, 0.005% vol/vol surfactant P20, Biacore). Antibodies at 20 nM or 50 nM in HBS-EP buffer were immobilized on the protein A/G surface and FcγRs were injected. After each cycle, the surface was regenerated by injecting glycine buffer (10 mM, pH 1.5). Data were processed by zeroing time and response before the injection of FcγR and by subtracting appropriate nonspecific signals (response of reference channel and injection of running buffer). Kinetic analyses were performed by global fitting of binding data with a 1:1 Langmuir binding model using BIAevaluation software (Biacore).

Row | Fold FcγRIIb [fold] | binding result | Binder
1 | 7.68 | – | B1
2 | – | no binding | B2
3 | – | no binding | B3
4 | 32.8 | – | B4
5 | 2.08 | – | B5
6 | 5.92 | – | B6
7 | – | no binding | B7
8 | 6.32 | – | B8
9 | 4.11 | – | B9
10 | 6.09 | – | B10
11 | – | no binding | B11
12 | 1.91 | – | B12
13 | 5.89 | – | B13
14 | 0.0372 | – | B14
15 | 2.65 | – | B15
16 | 39.8 | – | B16
17 | 3.31 | – | B17
18 | 3.97 | – | B18
19 | 15.9 | – | B19
20 | 12.3 | – | B20
21 | 8.53 | – | B21
22 | 4.89 | – | B22
23 | 18.6 | – | B23
24 | 3.49 | – | B24
25 | 3.04 | – | B25
26 | 6.82 | – | B26
27 | 11.9 | – | B27
